Paper PMC7824956, “Structural and Biochemical Characterization of a Cold-Active PMGL3 Esterase with Unusual Oligomeric Structure” (Biomolecules, 2021)
Values joined by “and” are separate entries in the source; they are usually repeats but may differ in a detail not shown here. Equal entries are not always repeated.

Experiments:
[1] = biological target: T1, PMGL3 (unidentified, UniProt Z9N994FV33); assay: esterase activity, Michaelis-Menten nonlinear regression; format: biochemical, permafrost metagenome; conditions: 50 mM Tris-HCl pH 8.0, 100 mM NaCl, 30 °C; 0.2-2 mM substrate
T1 construct: recombinant in E. coli, pET32a (stated for mutants), C-terminal hexahistidine tag; 302 residues modelled plus last 10 C-terminal residues invisible; mainly dimer in solution, tetramer in crystal; catalytic motif 147GESAG151, E243, H273
T1 sequence (Z9N994FV33 1-304): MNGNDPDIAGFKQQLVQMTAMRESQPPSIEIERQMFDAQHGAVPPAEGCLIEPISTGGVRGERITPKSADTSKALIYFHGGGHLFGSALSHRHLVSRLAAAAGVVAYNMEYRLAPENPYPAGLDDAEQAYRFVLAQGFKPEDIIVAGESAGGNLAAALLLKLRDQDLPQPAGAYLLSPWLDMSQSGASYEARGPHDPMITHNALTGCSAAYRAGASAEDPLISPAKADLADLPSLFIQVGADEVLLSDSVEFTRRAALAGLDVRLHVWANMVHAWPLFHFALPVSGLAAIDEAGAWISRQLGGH
Source text: (§1) esterase activity, Michaelis-Menten nonlinear regression on PMGL3

[2] = system: T2, CCCC(=O)Oc1ccc([N+](=O)[O-])cc1; assay: as above; format: biochemical, permafrost metagenome; conditions: 50 mM Tris-HCl pH 8.0, 100 mM NaCl, 30 °C, 0.2-2 mM substrate
T2 construct: recombinant in E. coli, pET32a (stated for mutants), C-terminal hexahistidine tag; 302 residues modelled plus last 10 C-terminal residues invisible; mainly dimer in solution, tetramer in crystal; catalytic motif 147GESAG151, E243, H273
Source text: as §1

[3] = biological target: PMGL3 D7N mutant (not stated (Siberian permafrost metagenomic DNA library)); assay: SEC; samples after incubation for 30 min and/or 1 h at 40 °C; Superdex 200 10/300 GL, 0.4 mL/min, 100 mM Tris-HCl pH 8.0, 150 mM NaCl
[4] = biological target: PMGL3 D7N mutant (not stated (Siberian permafrost metagenomic DNA library)); assay: SEC; freshly isolated samples; Superdex 200 10/300 GL, 0.4 mL/min, 100 mM Tris-HCl pH 8.0, 150 mM NaCl; column calibrated with protein standards
[5] = biological target: PMGL3 E47Q mutant (not stated (Siberian permafrost metagenomic DNA library)); assay: SEC; samples after incubation for 30 min and/or 1 h at 40 °C; Superdex 200 10/300 GL, 0.4 mL/min, 100 mM Tris-HCl pH 8.0, 150 mM NaCl
[6] = biological target: PMGL3 E47Q mutant (not stated (Siberian permafrost metagenomic DNA library)); assay: SEC; freshly isolated samples; Superdex 200 10/300 GL, 0.4 mL/min, 100 mM Tris-HCl pH 8.0, 150 mM NaCl; column calibrated with protein standards
[7] = biological target: PMGL3 K67A mutant (not stated (Siberian permafrost metagenomic DNA library)); assay: SEC; samples after incubation for 30 min and/or 1 h at 40 °C; Superdex 200 10/300 GL, 0.4 mL/min, 100 mM Tris-HCl pH 8.0, 150 mM NaCl
[8] = biological target: PMGL3 K67A mutant (not stated (Siberian permafrost metagenomic DNA library)); assay: SEC; freshly isolated samples; Superdex 200 10/300 GL, 0.4 mL/min, 100 mM Tris-HCl pH 8.0, 150 mM NaCl; column calibrated with protein standards
[9] = biological target: cold-active esterase PMGL3, wild type (not stated (Siberian permafrost metagenomic DNA library)); assay: SEC; sample after storage for 3 months at 4 °C; Superdex 200 10/300 GL, 0.4 mL/min, 100 mM Tris-HCl pH 8.0, 150 mM NaCl
[10] = biological target: cold-active esterase PMGL3, wild type (not stated (Siberian permafrost metagenomic DNA library)); assay: SEC; samples after incubation for 30 min and/or 1 h at 40 °C; Superdex 200 10/300 GL, 0.4 mL/min, 100 mM Tris-HCl pH 8.0, 150 mM NaCl
[11] = biological target: cold-active esterase PMGL3, wild type (not stated (Siberian permafrost metagenomic DNA library)); assay: SEC; freshly isolated samples; Superdex 200 10/300 GL, 0.4 mL/min, 100 mM Tris-HCl pH 8.0, 150 mM NaCl; column calibrated with protein standards
[12] = biological target: cold-active esterase PMGL3, wild type (not stated (Siberian permafrost metagenomic DNA library)); assay: as above; remark: listed apart in the source
[13] = biological target: cold-active esterase PMGL3, wild type (not stated (Siberian permafrost metagenomic DNA library)); assay: crystal structure; X-ray, space group C2, two subunits in the asymmetric unit; crystals from 0.1 M sodium citrate pH 5.6, 20% isopropanol, 20% PEG 4000; oligomers from crystal contact analysis (PDBePISA)
[14] = biological target: cold-active esterase PMGL3, wild type (not stated (Siberian permafrost metagenomic DNA library)); assay: as above; remark: listed apart in the source

With `CCCC(=O)Oc1ccc([N+](=O)[O-])cc1` [p-nitrophenyl butyrate] the Km [1] was 980 ± 90 µM.

In the case of PMGL3 (unidentified; D7N), the Km [2] is reported as 840 ± 70 µM, the Vmax [2] is reported as 157 µmol/min/mg and the kcat [2] is reported as 85 ± 3.15 s⁻¹.

Compound PMGL3 (unidentified; E47Q) has a Km [2] of 1070 ± 90 µM, a Vmax [2] of 117 µmol/min/mg and a kcat [2] of 63.7 ± 2.07 s⁻¹.

In the case of PMGL3 (unidentified; K67A), the Km [2] is reported as 940 ± 60 µM, the Vmax [2] is reported as 102 µmol/min/mg and the kcat [2] is reported as 55.5 ± 1.4 s⁻¹.

PMGL3 D7N mutant (enzyme) was tested, and the stoichiometry N [3] was 4 and the stoichiometry N [4] was 2 and 4.

For PMGL3 E47Q mutant (enzyme), the stoichiometry N [5] was 4 and the stoichiometry N [6] was 4 and 2.

With PMGL3 K67A mutant (enzyme) the stoichiometry N [7] was 4 and the stoichiometry N [8] was 2.

Compound “cold-active esterase PMGL3, wild type (enzyme)” has a stoichiometry N [9] of 4, a stoichiometry N [10] of 4 and a stoichiometry N [11] of 2. It also gave a stoichiometry N [12] of 4, a stoichiometry N [13] of 2 and a stoichiometry N [14] of 4.
